Data on one substance can be found in patent US20190271710A1.

Assay [1] addresses p217+ tau peptides (endogenous human tau protein or tau fragments phosphorylated at T217 and/or T212) (human) (UniProt P10636). The assay is described as follows: Simoa sandwich ELISA, pT3 capture beads, pooled AD CSF diluted 1:4. For orientation: An ELISA detects its analyte on a solid surface through an enzyme-linked reagent.
For assay [2] the target is unchanged. As to the kind of experiment: Simoa sandwich ELISA, pT3 capture beads, pooled AD CSF diluted 1:2.
Assay [3] shares this target. The assay is described as follows: Simoa sandwich ELISA, pT3 capture beads, pooled AD CSF diluted 1:64.
Assay [4] has the same target. As to the kind of experiment: Simoa sandwich ELISA, pT3 capture beads, pooled AD CSF diluted 1:16.
For assay [5] the target is unchanged. The assay is described as follows: Simoa sandwich ELISA, pT3 capture beads, pooled AD CSF diluted 1:8.
Assay [6] shares this target. As to the kind of experiment: Simoa sandwich ELISA, pT3 capture beads, pooled AD CSF diluted 1:32.

Sequence of p217+ tau peptides (endogenous human tau protein or tau fragments phosphorylated at T217 and/or T212) (human) (P10636 other isoform, or with tags, fused parts or gaps limits assumed): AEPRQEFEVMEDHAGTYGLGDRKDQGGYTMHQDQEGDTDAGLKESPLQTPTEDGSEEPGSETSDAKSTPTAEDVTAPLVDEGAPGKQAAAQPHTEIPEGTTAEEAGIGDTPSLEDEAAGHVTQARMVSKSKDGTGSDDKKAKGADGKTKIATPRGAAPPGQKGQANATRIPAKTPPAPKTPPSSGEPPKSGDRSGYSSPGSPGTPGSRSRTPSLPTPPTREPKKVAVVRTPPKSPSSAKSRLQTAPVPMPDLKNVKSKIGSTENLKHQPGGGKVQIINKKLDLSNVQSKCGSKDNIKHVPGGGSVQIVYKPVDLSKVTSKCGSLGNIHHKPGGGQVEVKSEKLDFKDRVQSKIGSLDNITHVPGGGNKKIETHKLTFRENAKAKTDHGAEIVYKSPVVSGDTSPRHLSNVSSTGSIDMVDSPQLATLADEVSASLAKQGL

In the case of “Quanterix tau 2.0 assay detector (antibody)”, the S/N @ 1:4 dilution in assay [1] came to 262 S/N. In assay [2], this substance displayed a S/N @ 1:2 dilution of 525 S/N. The substance further returned a S/N @ 1:64 dilution in assay [3] of 19 S/N. In assay [4], the S/N @ 1:16 dilution is 75 S/N. This substance showed a S/N @ 1:8 dilution in assay [5] of 147 S/N. In assay [6], this substance returned a S/N @ 1:32 dilution of 35 S/N.
